From patent US5776725, “Recombinant production of glucagon receptors” (ZymoGenetics, Inc., dated 1998)

Legend:
[1] = target: human glucagon receptor encoded by plasmid pLJ6' (human); assay: in situ 125I-glucagon binding with emulsion autoradiography on pLJ6'-transfected COS 7 cells
[2] = target: rat glucagon receptor encoded by plasmid pLJ4 (rat); assay: Scatchard analysis of 125I-glucagon binding in competition with unlabeled glucagon, membranes of pLJ4 BHK transfectants
[3] = target: rat glucagon receptor encoded by plasmid pLJ4 (rat)
[4] = target: rat glucagon receptor encoded by plasmid pLJ4 (rat); remark: listed apart in the source
[5] = target: glucagon receptors of rat liver membrane preparations (rat) (UniProt P30082); assay: Scatchard analysis of 125I-glucagon binding in competition with unlabeled glucagon, rat liver membranes
[6] = target: rat glucagon receptor encoded by plasmid pLJ4 (rat); remark: listed apart in the source
[7] = target: rat glucagon receptor encoded by plasmid pLJ4 (rat); remark: listed apart in the source
[8] = target: T1, bovine parathyroid hormone (PTH) (Sigma) (bovine, UniProt P01268); assay: competition with 125I-glucagon, membranes of pLJ4 BHK transfectants
T1 sequence (peptide): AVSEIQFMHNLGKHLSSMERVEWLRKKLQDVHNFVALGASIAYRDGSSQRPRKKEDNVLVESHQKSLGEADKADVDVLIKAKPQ
Method: The binding reaction was initiated by the addition of 20 µl of a membrane preparation to the reaction tubes. The reactions were incubated for 30 minutes at 30° C. The membranes were pelleted by centrifugation in a microfuge at high speed for 10 minutes at 4° C. The supernatants from each sample were aspirated, and the pellets were counted.

## 125I-glucagon (Amersham receptor grade) (ligand)
[1]
  percent of transfected cells that bound glucagon: > 50%

## glucagon (ligand)
[2]
  Kd: 50 nM
[3]
  fold induction of luciferase (CRE-luciferase): 6 to 10 fold
[4]
  intracellular calcium concentration (fura-2 photoimaging): 400 nM
[5]
  Kd: 49 nM
[6]
  cAMP levels (Amersham SPA kit): 5 fold
[7]
  ED50 of cAMP induction: 0.25 nM
  induction of cAMP levels (scintillation proximity radioimmunoassay): 140 fold

B1: rat glucagon receptor encoded by plasmid pLJ4 (receptor)
chain: AQVMDFLFEKWKLYSDQCHHNLSLLPPPTELVCNRTFDKYSCWPDTPPNTTANISCPWYLPWYHKVQHRLVFKRCGPDGQWVRGPRGQSWRDASQCQMDDDEIEVQKGVAKMYSSYQVMYTVGYSLSLGALLLALVILLGLRKLHCTRNYIHGNLFASFVLKAGSVLVIDWLLKTRYSQKIGDDLSVSVWLSDGAVAGCRVATVIMQYGIIANYCWLLVEGVYLYSLLSITTFSEKSFFSLYLCIGWGSPLLFVIPWVVVKCLFENVQCWTSNDNMGFWWILRIPVLLAILINFFIFVRIIHLLVAKLRAHQMHYADYKFRLARSTLTLIPLLGVHEVVFAFVTDEHAQGTLRSTKLFFDLFFSSFQGLLVAVLYCFLNKEVQAELLRRWRRWQEGKALQEERMASSHGSHMAPAGTCHGDPCEKLQLMSAGSSSGTGCEPSAKTSLASSLPRLADSPT
[8]
  binding result: no binding (tested: 1 µM)
